Values quoted from earlier work, collected in article PMC5897016.

Target: Complement C5 (Homo sapiens) (UniProt P01031)

Kd: < 0.05 nM
Substance: eculizumab
